Test results published in publication PMC3668577, “Structure of diaminohydroxyphosphoribosylaminopyrimidine deaminase/5-amino-6-(5-phosphoribosylamino)uracil reductase from Acinetobacter baumannii” (Acta Crystallographica Section F: Structural Biology and …, 2013).

What was measured:
AbRibD = molecular target: T1, AbRibD (Acinetobacter baumannii, UniProt D0CB74); test: X-ray crystallography (cocrystallization), […] A; conditions: 5 mM GMP; crystals at pH 5, 293 K; NADPH-binding site of reductase domain (adenine pocket); second site on surface at occupancy 0.5; authors judge binding not biologically relevant
T1 construct: gene ribD; full length, 362 residues untagged (386 with tag); N-terminal His6-TEV tag (24 extra residues) kept; E. coli BL21(DE3); homodimer; subunit 42038 Da tagged
T1 sequence (D0CB74 1-361): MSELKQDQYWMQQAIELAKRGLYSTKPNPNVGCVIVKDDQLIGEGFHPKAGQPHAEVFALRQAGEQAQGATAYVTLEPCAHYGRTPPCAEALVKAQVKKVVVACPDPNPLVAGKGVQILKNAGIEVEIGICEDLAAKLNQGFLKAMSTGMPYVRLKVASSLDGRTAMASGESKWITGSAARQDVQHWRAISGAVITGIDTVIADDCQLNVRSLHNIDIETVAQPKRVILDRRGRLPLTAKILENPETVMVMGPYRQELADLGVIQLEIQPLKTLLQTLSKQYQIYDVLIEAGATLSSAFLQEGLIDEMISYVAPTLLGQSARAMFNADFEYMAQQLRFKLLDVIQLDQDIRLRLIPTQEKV

[1] = molecular target: Acinetobacter baumannii diaminohydroxyphosphoribosylaminopyrimidine deaminase/5-amino-6-(5-phosphoribosylamino)uracil reductase (RibD) (Acinetobacter baumannii (strain ATCC 19606)); test: crystal structure; form I (apo, C222(1), 2.2 A, two subunits in the asymmetric unit related by a noncrystallographic twofold) and form II (grown with 5 mM GMP, P4(3)2(1)2, 2.0 A, same dimer generated by a crystallographic twofold); crystals grown at 293 K
[2] = molecular target: Acinetobacter baumannii diaminohydroxyphosphoribosylaminopyrimidine deaminase/5-amino-6-(5-phosphoribosylamino)uracil reductase (RibD) (Acinetobacter baumannii (strain ATCC 19606)); test: SEC; Superdex 200 26/60, 50 mM Tris-HCl, 250 mM NaCl pH 7.5; both Ni2+ column peaks ran as homogeneous samples of approximate mass 58 kDa (tagged subunit 42 038 Da)

| Compound | X-ray crystallography (cocrystallization), 1.99 A (AbRibD) | stoichiometry N [1] | stoichiometry N [2] |
| --- | --- | --- | --- |
| Nc1nc2c(ncn2[C@@H]2O[C@H](COP(=O)(O)O)[C@@H](O)[C@H]2O)c(=O)[nH]1 [GMP] | a GMP molecule was observed in the NADPH-binding site of the reductase domain | – | – |
| Acinetobacter baumannii diaminohydroxyphosphoribosylaminopyrimidine deaminase/5-amino-6-(5-phosphoribosylamino)uracil reductase (RibD) (enzyme) | – | 2 | 2 |
